Experiment: soluble on expression in E. coli; label from the status in PepcDB or PDB records
For “MVAQNPTSISSGGRKQPQKQDKVQKKQLKKIYVVKIKRIPFGFFEKELLGYFRQFGNVLRIRVARNRRTGNHKGWAYVGFDNKAVAEIAAESMNGYLMFEQRLGCTVMKPELIPKAMRHGPLLVMRPSYLGIAKKDTIARNNTTGKNDVINAKKRVQNLNKTLKKLQNMGINYDFSVSGTPRTPLKKVIDNEVQFISDVTPKSTTPKIVKAATPKAATPKAVTPKQATPKVSTPVTKKVVIKTPKTEKPEPKQFTPKTRAGKKAAAAATPQAKSTLSNTILKSVAASARPAAVEKKTLRSRGKKKSL”, the “soluble on expression in E. coli” value was “soluble”.
In the case of “MRLRHLSDPDSLPALDKSFAIERPALGLAPDAPPVRILLLYGSLRARSFSRLAVEEAARLLQFFGAETRIFDPSDLPLPDQVQSDDHPAVKELRALSEWSEGQVWCSPERHGQITSVMKAQIDHLPLEMAGIRPTQGRTLAVMQVSGGSQSFNAVNTLRLLGRWMRMFTIPNQSSIAKAFQEFDAAGRMKPSPYYDRIADVMEELVRFTALVRPHREALTDRYSERKAAGHVIDEATDLSSIAIAPQPLPESETS”, the “soluble on expression in E. coli” value is reported as “soluble”.
For “SHEVVRDVPAMVVDRSNSTLSREYLRRVDATPEVSIVGHCTDMEEAKEQIRRRNAYGIIYVPEDFSEHLNTGRKAHISLYCDMSGLLYYKSLLIANTLVSLEMNKEIKIARSVGATERQGEIISYPIDYEDVALYNPTV”, the “soluble on expression in E. coli” value was “not soluble”.
For “MSVLYIQIRRNQITVRDLESKREVSGDAAFSNQRLLIANFFVAEKVLQDLVLQLHPRSTWHSFLPAKRMDIVVSALEMNEGGLSQVEERILHEVVAGATLMKYRQFHIHAQSAVLSDSAVMAMLKQK”, the “soluble on expression in E. coli” value was “soluble”.
In the case of “MLAIFQKAFAHPPEELNSPASHFSGKTPKLPGETLSDFLSHHQNNAFSMNFGDSAVLAYARQETSLRQRLFCGLDGIYCMFLGRLNNLCTLNRQYGLSGKNSNEAMFVIEAYRTLRDRGPYPADQVLRGLEGSFAFVVYDTQTSSVFSALSSDGGESLYWGISGDGSVVMSDDIQIIKQGCAKSFAPFPNGCMFHSETGLKSFDHPTNMMKAMPRIDSEGVLCGASFKVDACSKINSIPRRGSEANWALANSR”, the “soluble on expression in E. coli” value is reported as “soluble”.
With “MGSDKIHHHHHHMRLLDLYLTLRLALSTAVHTLAGRVKGRSYVPHPRTMLFIEPTSHCNLECSFCTYRLDRHPRLTLDMERFEDYVAQARAMGFADMVLTPINGDVFMDRTILDKLRLLDRLKDGPGIILYTNLIGASAEQLGEILALARLKMFQVSIYGHDFETFRRITGRGQVQFRRLLANLETIADLVAQGVVPQALSICVRTERHYRLEDEASGELHVLLRRLISLGIPVSVQSCLDDWGGLVAETDLDGLDMPLIRGRLIPKNGACIEPFYNVQILADGRVNACACRSVGEDLIIGDLRQDDLKTILSARNPAYTGLIERQQKGDFPQTCRGCSFYRSIYDRRIRNASPLGHMSLEQFHTFLSRE” the “soluble on expression in E. coli” value was “not soluble”.
For “SGWRSSVSRSLRPETSCDRPSSHLRNMDVNMAAELSPTNSSSSGELSVSPEPPRETQAFLGKVTVIDYFTFQHKHLKVTNIDDMTETLYVKLPENMTRCDHLPITCEYLLGRGSYGAVYAHADNATVKLYDSVTELYHELMVCDMIQIGKATAEDGQDKALVDYLSACTSCHALFMPQFRCSLQDYGHWHDGSIEPLVRGFQGLKDAVYFLNRHCGLFHSDISPSNILVDFTDTMWGMGRLVLTDYGTASLHDRNKMLDVRLKSSKGRQLYRLYCQREPFSIAKDTYKPLCLLSKCYILRGAGHIPDPSACGPVGAQTALRLDLQSLGYSLLYGIMHLADSTHKIPYPNPDMGFDRSDPLYFLQFAAPKVVLLEVLSQMWNLNLDMGLTSCGESPCVDVTAEHMSQFLQWCRSLKKRFKESYFFNCRPRFEHPHLPGLVAELLADDFFGPDGRRG”, the “soluble on expression in E. coli” value was “soluble”.
With “MEFLLLDDRENLKLAIIRKLEQQYSFSERKDRLCKQLAISPYLLERNITEINADLQRFGLINEMEISEKNNEILLSQSLRISSSIIEEYYLKDSLEFNLLKTIFFHQFTSIKKYGEKHGMSRTVVYKIVDHIRKELGQYGIKLSKNLQLSGNEMAIRQYFTMLYYRIYKDSEELYNQTDLRAVNQLLAQLKGSYENITNFHLFKHYVLVALERTQRKANYFLSQEENPFAFDEESSIYQEIQSWINEVMKATHAEKNAEIQGIIGNLSVYQSELISEHLLSSHNEAITATKTLFFSYMPFTISDEEFYQEIVPIIYQHRFITPFIDITLRIMDLEFFQERYPIVFNSCRQFLFALDCSAFEFSKLSLFFDLLLVLSRLYDQRNEKSTINLYVNFTQGEKYTQFIKEQIKIFESFSIHFHSAIRPDTDLVVSDYLPKTLFSVKCLIWLAPPRASDWQNFGNEIVRINKELQQTKQRKSE” the “soluble on expression in E. coli” value was “not soluble”.
In the case of “MSWINRIFSKSPSSSTRKANVPEGVWTKCTACEQVLYSEELKRNLYVCPKCGHHMRIDARERLLNLLDEDSSQEIAADLEPKDILKFKDLKKYKDRINAAQKETGEKDALITMTGTLYNMPIVVAASNFAFMGGSMGSVVGAKFVKAAEKAMEMNCPFVCFSASGGARMQEALFSLMQMAKTSAVLAQMREKGVPFISVLTDPTLGGVSASFAMLGDLNIAEPKALIGFAGPRVIEQTVREKLPEGFQRSEFLLEKGAIDMIVKRSEMRQTLASVLSKLTNQPSPFVEPELISEDE”, the “soluble on expression in E. coli” value is reported as “not soluble”.
For “MGITSAGMQSRDAECGERIFTRTVRQVKQQTTVHYFVSPPRPPVKTNPQAKTLISTRLEVATRKKRRVLFILEHHHHHH”, the “soluble on expression in E. coli” value was “not soluble”.
With “SNATIYRMVDLPVIQPRLCTHARWPAPVYGLLVDPSLPSNPQWQNGRVHVDGTLLGTTPISGSWVSCFAAEAAYEFQSGTGEVATFTLIEQDGSAYVPGDRAAPLGYPDFSGQLEIEVQTETTKTGDKLKVTTFEMILGPTTNADQAPYQGRVFASVTAAASLDLVDGRVRAVPRSIYGFQDTIPEYNDGLLVPLAPPIGPFLPGEVLLRFRTYMRQIDTADAAAEAIDCALPQEFVSWFASNAFTVQSEALLLRYRNTLTGQLLFECKLYNEGYIALSYSGSGPLTFPTDGIFEVVSWVPRLYQLASVGSLATGRMLKQ” the “soluble on expression in E. coli” value was “soluble”.
For “MFNKKMVAMAMTVPLVMGTLSTVSAVETKKQVKVEAYSPQKKAIEYLKGNANQYGLKPDLSDLQYISTTETPVASYVRFQQVVNGAPVFSNQITVTLNGEGKGVLAVSDYQPIKAVKQVTEKISEKDAIQKSMAYVGEASEQNLWAPTEKEFGYIIEEGIARPVYKVVVHSNNPFGAWETFIDAENGKLIKKVDINRKVEGTGKVFLPNPVVSSGSLAGLKDNNDADSTALTNQLKTVTLKGLDGTGFLIGEYVTISSKARTKSTNLQFNYTRANDSFEDVMSYYHIDTLQRYIQSLGFQNINNRSIKVNVNGTTADNSFYSPTTKALTFGTGGVDDAEDAGIIAHEYGHSIQDNQVPGFGSSAEGGAMGEGFGDFLGATYEDAVSTTGYGKACVGEWDAAAYSSSDPTCLRRLDTNKVYPKDMKNQVHADGEIWSQGQYEMAQAFGRDVATKIILQSHWSLTPNSKFSDGAKAIKQADALLYGGQHAADIDRIWAARGISTN”, the “soluble on expression in E. coli” value was “not soluble”.
For “MAARPITLGIDLGTTSVKAALLRAAPDDPSGFAVLASCARAARAEAAVESAVAGPQGREQDVSRILQALHECLAALPRPQLRSVVGIGVSGQMHGVVFWKTGQGCEWTEGGITPVFEPRAVSHLVTWQDGRCSSEFLASLPQPKSHLSVATGFGCATIFWLLKYRPEFLKSYDAAGTIHDYVVAMLCGLPRPLMSDQNAASWGYFNTQSQSWNVETLRSSGFPVHLLPDIAEPGSVAGRTSHMWFEIPKGTQVGVALGDLQASVYSCMAQRTDAVLNISTSVQLAASMPSGFQPAQTPDPTAPVAYFPYFNRTYLGVAASLNGGNVLATFVHMLVQWMADLGLEVEESTVYSRMIQAAVQQRDTHLTITPTVLGERHLPDQLASVTRISSSDLSLGHVTRALCRGIVQNLHSMLPIQQLQEWGVERVMGSGSALSRNDVLKQEVQRAFPLPMSFGQDVDAAVGAALVMLRRHLNQKES”, the “soluble on expression in E. coli” value was “not soluble”.
For “MSLRKFWHVGINVTDMDKSIDFYRRIGFEVVQDREVEDSNLARAFMVEGASKLRFAHLRLNDSPDEAMLDLIEWRDARSEGRAQSDLVHPGLCRFSILTDDIDAEYARLADDGVQFLHAPQTIMGPDGVKGWRLLFARDPDGTLFHFAELVGQAATEGHHHHHH”, the “soluble on expression in E. coli” value was “not soluble”.
With “MSLKHYDLIIIGTGSGNSIPGPEFDDKSIAIVEKGAFGGTCLNVGCIPTKMYVYAADIAQEIQESARLGIDATVNSVDWPSIVSRVFDKRIDLIAQGGEAYRRGPETPNIDVYDMHASFVDSKTISTGIAGQEQLISGTDIVIATGSRPYIPEAIAESGARYYTNEDIMRLAQQPESLVIVGGGFIALEFAHVFEALGTKVTILNRSDVLLREADADISAKILELSKKRFDVRLSTAVTAVHNKADGGVKISTDTGDDIEADILLVATGRTPNGNQMNLDAAGIEMNGRSIKVDEFGRTSVEGVWALGDVSSPYKLKHVANAEMRAIKHNLANPNDLQKMPHDFVPSAVFTNPQISQVGMTEQEAREAGLDITVKIQNYSDVAYGWAMEDKDGFVKLIADKDTGKLVGAHIIGAQASTLIQQLITVMAFGIDAREAATKQYWIHPALPEVIENALLGLEFEGHHHHHH” the “soluble on expression in E. coli” value was “soluble”.
With “MSKTFKDYGTGSGKDVIADEKPFSILLMGVDTGSSERTSKWEGNSDSMILVTVNPKTKKTTMTSLERDILVKLSGSKTNDQTGYDAKLNAAYAAGGAKMAIMTVQDMLDIKIDKYVQINMEGLVQLVDAVGGITVTNHFDFPISIEEHEPEFTASVEPGTHKINGEQALVYSRMRYDDPDGDYGRQKRQREVISKVLKKILALDSVSKYRKILSAVSKNMQTNIEISSSTIPKLLGYSDALKSIRTYQLKGEGTTIDGGSYQLVTSKELLKAQNRIKGQLGLKKSTAENLKTTASLYENFYGGDTSIYDSSSSASDYSSSGNYSGSSSDYGSSSSYGSNSSSGSSSDYSGQNSYNQGNYQQPAAGTGIGNLEHHHHHH” the “soluble on expression in E. coli” value was “soluble”.
For “MGSDKIHHHHHHMSNQKIIRLSPNPQDFGHDCDDLDPQMFASELPVQHTHVYYEDDNLGLYIGVWDTSTMVEAAAPSPCDEFMYLLEGEVEIKNSKTGTMEKVQAGEAFVIPKGYDCQWHQTGYLRKFFVISEHPKEDIPTTPVVEGIIKLKVNNSSQMAIEDSTGVEIEPTNTPFVIKGKEPAQKHLPSYKDHTGKFIAGTWHSEAFNSEMQPFPRNEFIYLQSGSLVITEQEGDEQVFTAGDAFFVPQGALCSWRSIGDVHTFYAILQSS”, the “soluble on expression in E. coli” value was “not soluble”.
For “MGSDKIHHHHHHMEMVMKNKRVAIIGAGPSGIAQLRAFESAEKQGHEIPELVCFEKQDTWGGQWNYSWRTGTDSYGEPVHSSMYRNLWSNGPKEVLEFAEYSFDEHFGKPISSYPPREVLWDYIAGRAKKSNVEKYIKFAHVVRWVSFDEATKLFTVTVENLRTGETSSDTYDNVIVGAGHFSFPNVPHFDGVETFPGQIMHAHEFRGAEAVADKDILLIGASYSAEDIGTQAYKMGARSVTFSYRSNPMGYEWPEEMTELPLVERFDGSEVHFVNGEKRKVDIVVFCTGYLHHYPFMPSELTLSSPNNLYPDTLYRGVVSEANNQLFWLGAQDQWLTFNMFDAQAWYVRDVILGRVALPSKEAQRNHMDKWLSRFEGLKSENDQIDFQCDYVEDLIDQTDYPSFDLKEVANILKGWVKSKEEDILNYRDYTYTSVMTGTTSVEHHTPWMIELDDSLERYLSEPQEDEARQVYRGKKVRDKA”, the “soluble on expression in E. coli” value was “not soluble”.
For “MTVYLRKAEPSDLPDILAIIEDGRRTLQKSGIPQWQNGDGPNQEILAKDIDQQTCYILMVEDALAGVGVLCSEIDPAYEAIFNGSWQPHSQTTYTAIHCVALKSSFQGQGLALVLLRSLVTAARLQGATDIRIDTHPQNLAMQHLIKKAGFVYQGDVILDVNDGERYAYQMILK”, the “soluble on expression in E. coli” value was “not soluble”.

From the DeepSol protein solubility set
